What was measured:
[1] = target: binding partner of C5A (XPA23); assay: Biacore
[2] = target: binding partner of C5A (XPA23); assay: Biacore, K-off

| fold affinity vs original [1] [fold] | fold difference in affinity vs original [2] [fold] | fold difference in affinity vs original [1] [fold] | Binder |
| --- | --- | --- | --- |
| 0.83 | 0.83 | – | C5A (XPA23) VH I51Q (antibody, V domains shown) VH: EVQLLESGGGLVQPGGSLRLSCAASGFTFSKYFMFWVRQAPGKGLEWVSVQSPSGGMTRYADSVKGRFTISRDNSKNTLYLQMNSLRAEDTAVYYCARVGYGGNSDYWGQGTLVTVSS VL: DIQMTQSPSSVSASVGDRLTIICRASQDINRWLAWYQQTPGNAPKLLIHSATSLQSGVPSRFSGSGSGTDFTLTINSLQPEDFATYYCQQADSFPLTFGGGTKVEIK |
| 0.03 | 0.03 | – | C5A (XPA23) VH P53Q (antibody, V domains shown) VH: EVQLLESGGGLVQPGGSLRLSCAASGFTFSKYFMFWVRQAPGKGLEWVSVISQSGGMTRYADSVKGRFTISRDNSKNTLYLQMNSLRAEDTAVYYCARVGYGGNSDYWGQGTLVTVSS VL: DIQMTQSPSSVSASVGDRLTIICRASQDINRWLAWYQQTPGNAPKLLIHSATSLQSGVPSRFSGSGSGTDFTLTINSLQPEDFATYYCQQADSFPLTFGGGTKVEIK |
| 0.04 | 0.04 | – | C5A (XPA23) VH P53K (antibody, V domains shown) VH: EVQLLESGGGLVQPGGSLRLSCAASGFTFSKYFMFWVRQAPGKGLEWVSVISKSGGMTRYADSVKGRFTISRDNSKNTLYLQMNSLRAEDTAVYYCARVGYGGNSDYWGQGTLVTVSS VL: DIQMTQSPSSVSASVGDRLTIICRASQDINRWLAWYQQTPGNAPKLLIHSATSLQSGVPSRFSGSGSGTDFTLTINSLQPEDFATYYCQQADSFPLTFGGGTKVEIK |
| 0.95 | 0.95 | – | C5A (XPA23) VH G55R (antibody, V domains shown) VH: EVQLLESGGGLVQPGGSLRLSCAASGFTFSKYFMFWVRQAPGKGLEWVSVISPSRGMTRYADSVKGRFTISRDNSKNTLYLQMNSLRAEDTAVYYCARVGYGGNSDYWGQGTLVTVSS VL: DIQMTQSPSSVSASVGDRLTIICRASQDINRWLAWYQQTPGNAPKLLIHSATSLQSGVPSRFSGSGSGTDFTLTINSLQPEDFATYYCQQADSFPLTFGGGTKVEIK |
| 1.53 | 1.53 | – | C5A (XPA23) VH S54K (antibody, V domains shown) VH: EVQLLESGGGLVQPGGSLRLSCAASGFTFSKYFMFWVRQAPGKGLEWVSVISPKGGMTRYADSVKGRFTISRDNSKNTLYLQMNSLRAEDTAVYYCARVGYGGNSDYWGQGTLVTVSS VL: DIQMTQSPSSVSASVGDRLTIICRASQDINRWLAWYQQTPGNAPKLLIHSATSLQSGVPSRFSGSGSGTDFTLTINSLQPEDFATYYCQQADSFPLTFGGGTKVEIK |
| 0.03 | 0.03 | – | C5A (XPA23) VH P53S (antibody, V domains shown) VH: EVQLLESGGGLVQPGGSLRLSCAASGFTFSKYFMFWVRQAPGKGLEWVSVISSSGGMTRYADSVKGRFTISRDNSKNTLYLQMNSLRAEDTAVYYCARVGYGGNSDYWGQGTLVTVSS VL: DIQMTQSPSSVSASVGDRLTIICRASQDINRWLAWYQQTPGNAPKLLIHSATSLQSGVPSRFSGSGSGTDFTLTINSLQPEDFATYYCQQADSFPLTFGGGTKVEIK |
| 0.08 | 0.08 | – | C5A (XPA23) VH S54N (antibody, V domains shown) VH: EVQLLESGGGLVQPGGSLRLSCAASGFTFSKYFMFWVRQAPGKGLEWVSVISPNGGMTRYADSVKGRFTISRDNSKNTLYLQMNSLRAEDTAVYYCARVGYGGNSDYWGQGTLVTVSS VL: DIQMTQSPSSVSASVGDRLTIICRASQDINRWLAWYQQTPGNAPKLLIHSATSLQSGVPSRFSGSGSGTDFTLTINSLQPEDFATYYCQQADSFPLTFGGGTKVEIK |
| 1.01 | 1.01 | – | C5A (XPA23) VH S54Q (antibody, V domains shown) VH: EVQLLESGGGLVQPGGSLRLSCAASGFTFSKYFMFWVRQAPGKGLEWVSVISPQGGMTRYADSVKGRFTISRDNSKNTLYLQMNSLRAEDTAVYYCARVGYGGNSDYWGQGTLVTVSS VL: DIQMTQSPSSVSASVGDRLTIICRASQDINRWLAWYQQTPGNAPKLLIHSATSLQSGVPSRFSGSGSGTDFTLTINSLQPEDFATYYCQQADSFPLTFGGGTKVEIK |
| – | 0.14 | 0.14 | C5A (XPA23) VH S54T (antibody, V domains shown) VH: EVQLLESGGGLVQPGGSLRLSCAASGFTFSKYFMFWVRQAPGKGLEWVSVISPTGGMTRYADSVKGRFTISRDNSKNTLYLQMNSLRAEDTAVYYCARVGYGGNSDYWGQGTLVTVSS VL: DIQMTQSPSSVSASVGDRLTIICRASQDINRWLAWYQQTPGNAPKLLIHSATSLQSGVPSRFSGSGSGTDFTLTINSLQPEDFATYYCQQADSFPLTFGGGTKVEIK |
| 0.06 | 0.06 | – | C5A (XPA23) VH P53N (antibody, V domains shown) VH: EVQLLESGGGLVQPGGSLRLSCAASGFTFSKYFMFWVRQAPGKGLEWVSVISNSGGMTRYADSVKGRFTISRDNSKNTLYLQMNSLRAEDTAVYYCARVGYGGNSDYWGQGTLVTVSS VL: DIQMTQSPSSVSASVGDRLTIICRASQDINRWLAWYQQTPGNAPKLLIHSATSLQSGVPSRFSGSGSGTDFTLTINSLQPEDFATYYCQQADSFPLTFGGGTKVEIK |
| 0.03 | 0.03 | – | C5A (XPA23) VH P53E (antibody, V domains shown) VH: EVQLLESGGGLVQPGGSLRLSCAASGFTFSKYFMFWVRQAPGKGLEWVSVISESGGMTRYADSVKGRFTISRDNSKNTLYLQMNSLRAEDTAVYYCARVGYGGNSDYWGQGTLVTVSS VL: DIQMTQSPSSVSASVGDRLTIICRASQDINRWLAWYQQTPGNAPKLLIHSATSLQSGVPSRFSGSGSGTDFTLTINSLQPEDFATYYCQQADSFPLTFGGGTKVEIK |
| 0.11 | 0.11 | – | C5A (XPA23) VH G55K (antibody, V domains shown) VH: EVQLLESGGGLVQPGGSLRLSCAASGFTFSKYFMFWVRQAPGKGLEWVSVISPSKGMTRYADSVKGRFTISRDNSKNTLYLQMNSLRAEDTAVYYCARVGYGGNSDYWGQGTLVTVSS VL: DIQMTQSPSSVSASVGDRLTIICRASQDINRWLAWYQQTPGNAPKLLIHSATSLQSGVPSRFSGSGSGTDFTLTINSLQPEDFATYYCQQADSFPLTFGGGTKVEIK |
| – | 0.04 | 0.04 | C5A (XPA23) VH S52T (antibody, V domains shown) VH: EVQLLESGGGLVQPGGSLRLSCAASGFTFSKYFMFWVRQAPGKGLEWVSVITPSGGMTRYADSVKGRFTISRDNSKNTLYLQMNSLRAEDTAVYYCARVGYGGNSDYWGQGTLVTVSS VL: DIQMTQSPSSVSASVGDRLTIICRASQDINRWLAWYQQTPGNAPKLLIHSATSLQSGVPSRFSGSGSGTDFTLTINSLQPEDFATYYCQQADSFPLTFGGGTKVEIK |
| 1.43 | 1.43 | – | C5A (XPA23) VH S54R (antibody, V domains shown) VH: EVQLLESGGGLVQPGGSLRLSCAASGFTFSKYFMFWVRQAPGKGLEWVSVISPRGGMTRYADSVKGRFTISRDNSKNTLYLQMNSLRAEDTAVYYCARVGYGGNSDYWGQGTLVTVSS VL: DIQMTQSPSSVSASVGDRLTIICRASQDINRWLAWYQQTPGNAPKLLIHSATSLQSGVPSRFSGSGSGTDFTLTINSLQPEDFATYYCQQADSFPLTFGGGTKVEIK |
| 1.75 | 1.75 | – | C5A (XPA23) VH I51Y (antibody, V domains shown) VH: EVQLLESGGGLVQPGGSLRLSCAASGFTFSKYFMFWVRQAPGKGLEWVSVYSPSGGMTRYADSVKGRFTISRDNSKNTLYLQMNSLRAEDTAVYYCARVGYGGNSDYWGQGTLVTVSS VL: DIQMTQSPSSVSASVGDRLTIICRASQDINRWLAWYQQTPGNAPKLLIHSATSLQSGVPSRFSGSGSGTDFTLTINSLQPEDFATYYCQQADSFPLTFGGGTKVEIK |
| 0.12 | 0.12 | – | C5A (XPA23) VH S54D (antibody, V domains shown) VH: EVQLLESGGGLVQPGGSLRLSCAASGFTFSKYFMFWVRQAPGKGLEWVSVISPDGGMTRYADSVKGRFTISRDNSKNTLYLQMNSLRAEDTAVYYCARVGYGGNSDYWGQGTLVTVSS VL: DIQMTQSPSSVSASVGDRLTIICRASQDINRWLAWYQQTPGNAPKLLIHSATSLQSGVPSRFSGSGSGTDFTLTINSLQPEDFATYYCQQADSFPLTFGGGTKVEIK |
| 0.03 | 0.03 | – | C5A (XPA23) VH P53Y (antibody, V domains shown) VH: EVQLLESGGGLVQPGGSLRLSCAASGFTFSKYFMFWVRQAPGKGLEWVSVISYSGGMTRYADSVKGRFTISRDNSKNTLYLQMNSLRAEDTAVYYCARVGYGGNSDYWGQGTLVTVSS VL: DIQMTQSPSSVSASVGDRLTIICRASQDINRWLAWYQQTPGNAPKLLIHSATSLQSGVPSRFSGSGSGTDFTLTINSLQPEDFATYYCQQADSFPLTFGGGTKVEIK |
| 0.11 | 0.11 | – | C5A (XPA23) VH G55E (antibody, V domains shown) VH: EVQLLESGGGLVQPGGSLRLSCAASGFTFSKYFMFWVRQAPGKGLEWVSVISPSEGMTRYADSVKGRFTISRDNSKNTLYLQMNSLRAEDTAVYYCARVGYGGNSDYWGQGTLVTVSS VL: DIQMTQSPSSVSASVGDRLTIICRASQDINRWLAWYQQTPGNAPKLLIHSATSLQSGVPSRFSGSGSGTDFTLTINSLQPEDFATYYCQQADSFPLTFGGGTKVEIK |
| 0.99 | 0.99 | – | C5A (XPA23) VH S54Y (antibody, V domains shown) VH: EVQLLESGGGLVQPGGSLRLSCAASGFTFSKYFMFWVRQAPGKGLEWVSVISPYGGMTRYADSVKGRFTISRDNSKNTLYLQMNSLRAEDTAVYYCARVGYGGNSDYWGQGTLVTVSS VL: DIQMTQSPSSVSASVGDRLTIICRASQDINRWLAWYQQTPGNAPKLLIHSATSLQSGVPSRFSGSGSGTDFTLTINSLQPEDFATYYCQQADSFPLTFGGGTKVEIK |
| 0.03 | 0.03 | – | C5A (XPA23) VH S54E (antibody, V domains shown) VH: EVQLLESGGGLVQPGGSLRLSCAASGFTFSKYFMFWVRQAPGKGLEWVSVISPEGGMTRYADSVKGRFTISRDNSKNTLYLQMNSLRAEDTAVYYCARVGYGGNSDYWGQGTLVTVSS VL: DIQMTQSPSSVSASVGDRLTIICRASQDINRWLAWYQQTPGNAPKLLIHSATSLQSGVPSRFSGSGSGTDFTLTINSLQPEDFATYYCQQADSFPLTFGGGTKVEIK |
